# B1: PST-16: fusion of Cst-II from C. jejuni OH4384 and the E. coli PST protein, SEQ ID NO: 15 (protein)
# chain: MKKVIIAGNGPSLKEIDYSRLPNDFDVFRCNQFYFEDKYYLGKKCKAVFYNPSLFFEQYYTLKHLIQNQEYETELIMCSNYNQAHLENENFVKTFYDYFPDAHLGYDFFKQLKDFNAYFKFHEIYFNQRITSGVYMCAVAIALGYKEIYLSGIDFYQNGSSYAFDTKQKNLLKLAPNFKNDNSHYIGHSKNTDIKALEFLEKTYKIKLYCLCPNSLLANFIELAPNLNSNFIIQEKNNYTKDILIPSSEAYGKFSKNINFGGGHMIFDASLKKLRKLFVNPIGFFRDSWFFNSKNKAEELLSPLKIKSKNIFIISNLGQLKKAESFVQKFSKRSNYLIVLATEKNTEMPKIIVEQINNKLFSSYKVLFIPTFPNVFSLKKVIWFYNVYNYLVLNSKAKDAYFMSYAQHYAIFVYLFKKNNIRCSLIEEGTGTYKTEKENPVVNINFYSEIINSIILFHYPDLKFENVYGTYPILLKKKFNAQKFVEFKGAPSVKSSTRIDNVIHKYSITRDDIIYANQKYLIEHTLFADSLISILLRIDKPDNARIFIKPHPKEPKKNINAIQKAIKKAKCRDIILITEPDFLIEPVIKKAKIKHLIGLTSSSLVYAPLVSKRCQSYSIAPLMIKLCDNDKSQKGINTLRLHFDILKNFDNVKILSDDITSPSLHDKRIFLGE
# B2: PST-17: truncated CstII from OH4384 fused to the Neisseria Pst, SEQ ID NO:2 (protein)
# chain: MKKVIIAGNGPSLKEIDYSRLPNDFDVFRCNQFYFEDKYYLGKKCKAVFYNPSLFFEQYYTLKHLIQNQEYETELIMCSNYNQAHLENENFVKTFYDYFPDAHLGYDFFKQLKDFNAYFKFHEIYFNQRITSGVYMCAVAIALGYKEIYLSGIDFYQNGSSYAFDTKQKNLLKLAPNFKNDNSHYIGHSKNTDIKALEFLEKTYKIKLYCLCPNSLLANFIELAPNLNSNFIIQEKNNYTKDILIPSSEAYGKFSKNINFGGGHMLKKIKKALFQPKKFFQDSMWLTTSPFYLTPPRNNLFVISNLGQLNQVQSLIKIQKLTNNLLVILYTSKNLKMPKLVHQSANKNLFESIYLFELPRSPNNITPKKLLYIYRSYKKILNIIQPAHLYMLSFTGHYSYLISIAKKKNITTHLIDEGTGTYAPLLESFSYHPTKLERNLIGNNLNIKGYIDHFDILHVPFPEYAKKIFNAKKYNRFFAHAGGISINNNIANLQKKYQISKNDYIFVSQRYPISDDLYYKSIVEILNSISLQIKGKIFIKLHPKEMGNNYVMSLFLNMVEINPRLVVINEPPFLIEPLIYLTNPKGIIGLASSSLIYTPLLSPSTQCLSIGELIINLIQKYSMVENTEMIQEHLEIIKKFNFINILNDLNGVISNPLFKTEETFETLLKSAEFAYKSKNYFQAIFYWQLASKNNITLLGHKALWYYNALYNVKQIYKMEYSDIFYIDNISVDFHSKDKLTWEKIKHYYYFADNRIGRDR
# Legend:
# Assay type in all cases: biochemical
# [1] = Comparison of PST-16 and PST-17 sialic acid polymerization, CE analysis; details: for formation of long sialic acid polymers: CE analysis; for amount of polysialic acid relative to all other sialylated species: Lac-FCHASE acceptor, FIG. 5
# From the text: The dotted line represents PST-16; the solid line represents PST-17. Arrows indicate the positions of Lactose (lac), GD3, GQ4, and polysialylated products conjugated to more than four sialic acid residues. The amount of polysialic acid relative to all other sialylated species ([…] sialic acid moieties) is about 50% in for each reaction.
# Sialylation of the starting material: (▪), +1 NeuAc; ( ? ), +2 NeuAc; (□), +3 NeuAc; ( ? ), 4 NeuAc; ( ? ), >4 NeuAc (▪). 6A is PST-16 with Lac-FCHASE substrate. 6B is PST-17 with Lac-FCHASE substrate. 6C is PST-16 with T-Ag-FCHASE substrate. 6D is PST-17 with T-Ag-FCHASE substrate.
# A fusion of Cst-II from C. jejuni OH4384 and the E. coli PST protein (PST-16) was generated and compared to the and N. meningitidis fusion (PST-17). Enzymatic activities of the two fusion proteins were determined and compared. […] See, e.g., FIGS. 5 and 6.
# [2] = Activity of self-priming poly-sialyltransferase proteins in E. coli supernatant or pellet, CE assay; parameters: Specific Activity: unit not given here; details: for Activity / Specific Activity: 24 hour sample; for Percent GM3: FCHASE-GM3 found in the product
# Procedure: The self-priming poly-sialyltransferase proteins were expressed in E. coli cells and growth conditions for optimal protein expression were determined. Similar results were obtained for all three fusions; therefore, results are shown only for the PST-17 fusion. Cells were grown at 20° C., 25° C. and 30° C. for four different time periods. Aliquots of 1.5 mL were harvested, sonicated, and then centrifuged at 10,000×g for 10 mm. Expression of the self-priming poly-sialytransferase proteins increased with time at all […] temperatures.
# Enzymatic activities of the self-priming poly-sialytransferase proteins were confirmed. Only the 24 hour samples of FIG. 4 were assayed Assays were done using the following reaction mixture: 0.5 mM FCHASE-Lac, 50 mM NaHEPES pH 7.5, 10 mM MgCl2, 5 mM CMP-NeuAc and 50% volume bacterial supernatant or pellet Reactions were incubated at 37° C. for 10 min and analyzed by capillary electrophoresis. […] For example, in the PST-17 20° C. supernatant, 9% of the substrate is converted into product, but most product is FCHASE-GM3. In contrast, in the PST-21 20° C. supernatant, 7% of the substrate is converted into product with 68% FCHASE-GM3, the remaining products containing longer sialic acid polymers. […] The highest levels of activity are shown in bold font.
# [3] = Polysialic acid synthesis, fusion protein versus mixture of unfused parent enzymes; details: T-Ag-containing glycopeptides
# From the text: FIG. 9 provides a comparison of polysialic acid synthesis activity using a mixture of unfused Cst-II and PST-13 enzymes or the PST-17 fusion enzyme. The sialic acid acceptor was the glycopeptide interferon α2b-[TAg]-FCHASE. FIG. 9A is the unfused enzyme mixture: CST-81 and PST-13. FIG. 9B is the PST-17 fusion enzyme. Figure legend: IFNα2b-[TAg]-FCHASE (Starting material) (▪); +1 NeuAc ( ? ); +2 NeuAc (□); +3 NeuAc ( ? ); +4 NeuAc ( ? ); >4 NeuAc (▪).
# In order to evaluate whether the fusion protein functions more efficiency than the unfused parent enzymes mixed together, we performed experiments where we controlled the stoichiometry of the individual sialyltransferases. The stoichiometry of the mixtures was calculated using gel densitometry. Care was taken not to overload the gels so that the protein bands were not saturated. Gels were stained with SYPRO Orange and protein was quantitated with software provided with Imager system. Reactions contained 4 μM enzyme based on the percentage present in the separate preparations.
# See, e.g., FIG. 9. Although less striking, similar results were obtained using a mono-sialylated T-Ag-glycopeptide (S-T-Ag-glycopeptide) acceptor also. See, e.g., FIG. 10.
# [4] = PST-17 time course on disaccharide acceptor; details: single addition of enzyme, fixed donor concentration
# Procedure: A comparison of acceptors substrates was performed using Lactose, N-acetyllactosamine, and Gal-β-1,3-GalNAc-α (T-Ag) disaccharide acceptors. […] See, e.g., FIG. 7.
# [5] = Poly-sialylation of glycopeptide acceptor by PST17, TLC and CE analysis
# Procedure: The control reaction lacked CMP-sialic acid. […] Disialylated products and products with more than 45 sialic acid residues are indicated with arrows.
# The poly-sialyltransferase of PST17 was tested using a partially glycosylated IFNα2b[GalNAc-Gal-NeuAc]-FCHASE glycopeptide. Assay conditions were as follows: 50 mM NaHEPES pH 7.5, 5 mM MnCl2, 5 mM MgCl2, 5 mM CMP-NeuAc, 0.0684 mM IFNα2b[GalNAc-Gal-NeuAc]-FCHASE glycopeptide. Reactions were incubated at 37° C. for 1 hour and 2 hours. […] After 1 hour incubation at 37° C. there is 49.9% conversion to sialylated product and after 2 hours there is 62.5% conversion to sialylated product. […] A glycopeptide acceptor was also a very good acceptor for the PST-17 fusion protein, and long PSA polymers could be seen in CE analysis of those reactions. (Data not shown.) The glyco-peptide acceptors, NH2-VGVT[GalNAc-α-]ETP-COOH (SEQ ID NO:32), were obtained from Sussex Research Laboratories (Ottawa, Canada) and then N-terminally labelled with FCHASE as described for the amino-phenyl glycosides.
molecule,measurement,setting,value
B1,consumption of the acceptor,[1],consumed completely
same,formation of long sialic acid polymers,[1],did not detect formation of long sialic acid polymers
same,amount of polysialic acid relative to all other sialylated species,[1],about 50%
B2,formation of long sialic acid polymers,[1],formation of long polymers happens from the earliest time points
same,amount of polysialic acid relative to all other sialylated species,[1],about 50%
same,substrate converted into product,"[2]; 20° C. supernatant, 37° C. for 10 min",9%
same,Activity,"[2]; 20° C., P (pellet)",3.270 mU/mL
same,Specific Activity,"[2]; 20° C., P (pellet)",8.959
same,Percent GM3,"[2]; 20° C., P (pellet)",98%
same,Activity,"[2]; 20° C., S (supernatant)",5.570 mU/mL
same,Specific Activity,"[2]; 20° C., S (supernatant)",2.637
same,Percent GM3,"[2]; 20° C., S (supernatant)",88%
same,Activity,"[2]; 25° C., P (pellet)",9.329 mU/mL
same,Specific Activity,"[2]; 25° C., P (pellet)",11.945
same,Percent GM3,"[2]; 25° C., P (pellet)",59%
same,Activity,"[2]; 25° C., S (supernatant)",8.192 mU/mL
same,Specific Activity,"[2]; 25° C., S (supernatant)",3.378
same,Percent GM3,"[2]; 25° C., S (supernatant)",67%
same,Activity,"[2]; 30° C., P (pellet)",13.355 mU/mL
same,Specific Activity,"[2]; 30° C., P (pellet)",15.228
same,Percent GM3,"[2]; 30° C., P (pellet)",51%
same,Activity,"[2]; 30° C., S (supernatant)",3.976 mU/mL
same,Specific Activity,"[2]; 30° C., S (supernatant)",1.893
same,Percent GM3,"[2]; 30° C., S (supernatant)",58%
same,polysialic acid product relative to the combination of unfused parent enzymes,[3],four times as much
same,polysialic acid product (PSA),[3]; 4 μM enzyme,17%
same,Lac-FCHASE consumed,[4],essentially all
same,T-Ag material consumed,[4],72%
same,conversion to sialylated product,[5]; 1 hour incubation at 37° C.,49.9%
same,conversion to sialylated product,[5]; 2 hours at 37° C.,62.5%
same,sialic acid residues on products,"[5]; CE analysis, FIG. 8",more than 45
